From the nanobody polyreactivity screen of Harvey et al. (2022)

Assay: yeast display, Sf9 membrane polyspecificity reagent, FACS + sequencing; frameworks hold sequencing errors
How it was run: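 Galactose induction of a Saccharomyces cerevisiae BJ5465 synthetic nanobody display library ran 36–48 hours. The cells were then stained for 1 hour at 4 °C with 10% biotinylated, detergent-solubilized Sf9 membrane reagent, pulled down on streptavidin microbeads and FACS-sorted into low and high (top ~1%) gates on expression and reagent-binding fluorescence. Labels for polyreactivity follow the gate of origin.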

QVQLVESGGGLVQAGGSLRLICAASGSIFGRYSMGWYRQAPGKERELVAAINYSGGRTYYADSVKGRVTISRDNAKNTVYLQMNSLKPEDTAVYYCAAAQFPDRNYNYWGQGTQVTVSS
polyreactivity (PSR sort gate): high polyreactivity

QVQLVESGGGLVQAGGSLRLSCAASGRTFVYYDMGWSRPAPGKERELVAAIDSSGSTYYADSVKGRFTISRDNAKNTVYLQMNSLKPEDTAVYYCAAGYWFFPYWYDYWGQGTQVTVSS
polyreactivity (PSR sort gate): high polyreactivity

QVQLVESGGGLVHAGGSLRLSCAASGSTFSRNTMGWYRQAPGKERELVAAITKSAVSTYNADSVKGRFTISRDNAKNTVYLQMNSLKPEDTAVYYCAKVYRTSTSKAYDYWGQGTQVTVSS
polyreactivity (PSR sort gate): high polyreactivity

QVQLVESGGGLVQAGGSLRLSCAASGLIFTSYAMGWYRQATGKERELVAAISGSAASTYYADSVKGRFTISRDNAKNTVYLQMNSLKPEDTAVYYCAADYQGYTPSDGRYYWGQGTQVTVSS
polyreactivity (PSR sort gate): low polyreactivity

QVHLVESGGGLVQAGGSLRLSCAASGRILTSNAMGWYRQAPGKERELVAAISWSGGSTYYADSVKGRFTISRVNAKNTVYLQMNSLKPEDTAVYYCAAPFTTTFDYWGQGTLVTVSS
polyreactivity (PSR sort gate): low polyreactivity

HVQLVESGGGLVQAGGCLRLSCAASGIIFLYNAMGWYRQAPGKERELVATITWSGGSTYYADSVKGRFTISRDNAKITVYLQMKSLKPEDTAVYYCAADYYYGYEFGYWGQGTQVTVSS
polyreactivity (PSR sort gate): low polyreactivity

QVQLVESGGGLVQAGGSLRLSCAASGSIFLTYTMGWYRQAPGKERELVAGISSRGGGTYYADSVKGRFTISRDNAKNTVYLQMNSLKPEDTAVYYCAAAIGYPHYWGRRKFYYWGQGTQVTVSS
polyreactivity (PSR sort gate): low polyreactivity

QVQLVESGGGLVQAGGSLRLSCAASGFTFHNYAMGWYRQAPGKEREFVAAITRNTASTYYADSVKGRFTISRDNAKNTVYLQMNSLNPEDTAVYYCAATDKKHRTAYDSWGQGTQVTVSS
polyreactivity (PSR sort gate): low polyreactivity

QVQLVESGGGLVQAGGSLRLSCAASGRTIRWNAMGWYRQAPGKERELVGAIDSVDNTYYADSVKGRFTISRYNAKNTVYLQMNSLKPEDTGVYYCARDPYWQVQMDYWGQGTQVTVSS
polyreactivity (PSR sort gate): low polyreactivity

QVKLVESGGGLVQAGGSLRLSCAASGSTLYQYTMGWYRQAPGKERELVAGISRRGGSTYYAYSVKGRFTISRDNAKNTVYLQMNSLKPEDTAVYYCAKRPHYIAWYGYNGDYWGQGTQVTVSS
polyreactivity (PSR sort gate): high polyreactivity

QVQLVESGGGVVQAGGRLRLSCAASGFTFGSNDMGWYRQAPGKETELVAAIDGSGDTYYADSVKGRFTISRDNAKNTVDLQMNSLKPEDTAVYYCAADVIYWFSGEYDYWGQGTQVTVSS
polyreactivity (PSR sort gate): low polyreactivity

QVQLVESGGGLVQAGGSLRLSSAASGLTFINYDMGWYRQAPAKERELVAAISQIGTSTYYADSVKRRFTISRDNAKNTVYLQMNSLKPEDTAVYYCAAEFPTVYIPWSEMDYWGQGTQVTVSS
polyreactivity (PSR sort gate): high polyreactivity

QVQLEESGGGLVQAGGRLRLSCAASGRTFSTYAMGWYRQATGKERELVAAITRRGGSTSYADSVKGRFTISRDNANNTVYLQMNSLNPEDTAVYYCARENPGDSYYDYWGQGTQVTVSS
polyreactivity (PSR sort gate): low polyreactivity

QVQLVESGGGLVQAGGSLRLSCAASGSIFLHYAMGWYRQAPGKERELVAAISRSGGRTYYADSVKGRFTISRDNAKNTVYLQMNSLKPEDTAVYYCAARVPRYRKDSVWAYYYWGQGPQVTVSS
polyreactivity (PSR sort gate): high polyreactivity

QVQLVESGGGLVQAGGSLRLSCAASGITFTLYAMGWYRQSPGKERELVAAISRGGGTTYYADSVKGRFTISRDNAKNTVYLQMNSLKPEDTAVYYCATDWHSSGYWGQGTQVTVSS
polyreactivity (PSR sort gate): low polyreactivity

QVQLVESGGGLVQAGGSLRLSCAASGFTFRVNAMGWYRQAPGKERELVAVISHSGGSTYYADSVKGRFTISRDNAKNTVYLQMNSLKPEDTAVYYCAKDRVVLYKYYRVDYWGQGTQVTVSS
polyreactivity (PSR sort gate): low polyreactivity

QVQLVESGGGLVQAGGSLRLSCAASGRTFYSYAMGWYRQAPGKERELVAAISYTGASTFYADSVKGRFTISRDNAKNTVYLQMNSLKPEDTAVYYCAARKVRFGVDYWGPGTQVTVSS
polyreactivity (PSR sort gate): high polyreactivity

QVQLVESAGGLVQAGGSLRLSCAASGRIFQFYAMGWYRQARGKERELVAVITRRGGSTHYADSVKGRFTISRDTAKNTVYLQMNILKPEDTAVYYCAKVPFHFVSPYDYWGQGTQVTVSS
polyreactivity (PSR sort gate): high polyreactivity

QVQLVESGGGLVQAGGSLRLSCAASGNIFATYAMGWYRHAPGKEREFVAAITSRGGGTFYADSVKGRFTISRDNAKNTVYLQMNSLKPEDTAVYYCAARRSGHWLYGYWGQGTQVTVSS
polyreactivity (PSR sort gate): high polyreactivity

QVQLVESGGGLVQAGGSLRLSCAASGRTFSVYAMGWYRQAPGKERELVATISWGGGITYYADSVKGRFTISRDNAKNTVYLQMNSLKPEDTAVYYCAAKRSLYPYYYWGQGTQVTVSS
polyreactivity (PSR sort gate): high polyreactivity

QVQLVESGGGLVQAGGSLRLSCAASGFIFTFYAMGWYRQAPGKEREFVASIDWGDGSTYYADSVKGRFTISRDNAKNTVYLQMNSLKPEDTAVYYCATDVYFLSSEYWGQGTQVTVSS
polyreactivity (PSR sort gate): low polyreactivity

QVQLVESGGGLVQAGGSLRLSCAASGSIFRTNAMGWYRQAPGKERELVAAITGSGGSTYYADSVKGRFTISRDNAKNTVYLQMNSLKPVDTAVYYCAADGQLPPRGILASWEFDYWGQGTQVTVSS
polyreactivity (PSR sort gate): low polyreactivity

QVQHVESGGGLLQPGGSLRLSCAASGSTFRTNAMGWYRQAPGKERELVAAISRSTGSTYYADSVKGRFTISRDNAKNTVYLQMNSLKTVDSAVFYCNALSGFWGQGTQVTVSS
polyreactivity (PSR sort gate): low polyreactivity

QVQLVESGGGLVQAGGSLRLSCAASGFSFSSYAMGWYRQAPGTERELVATISVNGGSTNYADSVKGRFTISRDNAKNTVYLQMNSLIPEDTAVYYCNAKSYTRRSYYTPTVPGDYWGQGTQVTVSS
polyreactivity (PSR sort gate): low polyreactivity

QVQLVESGGGLVQAGGRLRLSCAHSGIIFFFYAMGWYRQAPGKERELVAAISDDGVSTDYADSVKGRFTISRDNAKNTVYLQMNSLKPEDTAVYYCAAKTERVYPWFSFGYWGQGTQVTVSS
polyreactivity (PSR sort gate): low polyreactivity

PVQLVESGGGLVQAGGSLRLSCAASGSTFAYNAMGWYRQAPGKERELVAAISWSGGTTYYADSVKGRFTISPDNAKNPVYLQMNSLKPEDTAVYYCAADVYLNRRQRMYYWGQGTQVTVSS
polyreactivity (PSR sort gate): high polyreactivity

QVQLVESGGGLVQAGGSLRLSCAASGFTFIRYAMGWYRQAPGKERELVARITSGGSTYYADSVKGRFTISRDNAKNTVYLQMNSLKPEDTAVYYCNADKWYIIQGYYWPGYEYWGQGTQVTVSS
polyreactivity (PSR sort gate): low polyreactivity

QVQLVESGGGLVQAGGSLRLSCAASGNIFGYYVMGWYRQAPGKERELVAGISSGDSTDYADSVKGRFTISRDNAKNTVYLQMNSLKPEDTAVYYCNADWNPTERWFYWYTPLGYDYWGQGTQVTVSS
polyreactivity (PSR sort gate): low polyreactivity

QVQLVESGGGLVQAGGSLRLSCAASGRIFGVYAKGWYRQAPGKERELVAAISEGGGSTNYADSVKGRFTISRDNAKNTVYLQMNSLKPEETSVYYCAATYLTGVRRYYSWGQGSQVTVSS
polyreactivity (PSR sort gate): low polyreactivity

QVQIVESGGGLVQAGGSLRLSSAASGNIFVYYAMGGYRQAPGKERELVAALTSDVSTYYADSVKGRFTISRDNAKNTVYLQMNSLKPEDTAVYYCNKVTPGRYYYSVTTGDYWGQGTKVTVSS
polyreactivity (PSR sort gate): low polyreactivity

QVQLVESGGGLVQAGGSLRLSCAASGFTFLAYAMVWYRQAPGKERELVAAIRWSGGRTYYADSVKGRFTISRDNAKNTVYLQMNSLKPEDTAVYYCAADTRRVREYNYWGQGTQVTVSS
polyreactivity (PSR sort gate): low polyreactivity

QVQLVESGGGLVQAGGSLRLSCAASGNIFDRNAMGWYRHAPGKESELVAAISRSGGRTYYADSVKGRFTISRDNAKNTVYLQMNSLKPEDTAVYYCNRRYRNYSSAKYDYWGQGTQVTVSS
polyreactivity (PSR sort gate): high polyreactivity

QVQIVESGGGLVQAGGTLRLSCAASGFIFSSYGMGWYRKAPGKERELVADISGGGSTNYADSVKGRFTISRDNAKNSVYLQMNSLKPEETAVYYCNAQLIRSAAYDYWGQGTQVSVSS
polyreactivity (PSR sort gate): low polyreactivity

QVQLVESGGGLVQAGGSLRLTCAASGLIFGSNAMRWYRKAPGKERELVAGISGSGEHYVLRRSVKGRFTISRDNAKNTVYVQMNSLKPEDTAVYYCATYSQSSKGPAGYDYWGQGTHVTVSS
polyreactivity (PSR sort gate): high polyreactivity

QVQLVESGGGLVQAGGSLRLSCAASGSTLALYAMGWYRQAPGKERELVAVITSGGSTDYADSVKGRFTISRDNAKNTVYLQMNSLKPEDTAVYYCAAEGRPGKYSYVYWGQGTQVTVSS
polyreactivity (PSR sort gate): low polyreactivity

QVQLVESGGGLVQAGGSLRLSCAASGSILRFNSMGWYRQAPGKERELVATITKGGGRTNYADSVKGRFTISRDNAKKTVYLQMNSLKPQDTSVYYCAEKFIYARYGTFQTDYKIYDYWGQGTQVTVSA
polyreactivity (PSR sort gate): high polyreactivity

QVQLVESGGGLVQAGGSLRLSCAASGFIFYAYAMGWYRQAPGKEREFVAAISARGGNTYYADSVKGRFTISRDNAKNSVYLQMNSLKPEDTAVYYCAIYGGYYYLSGYYYWGQGTQVTVSS
polyreactivity (PSR sort gate): high polyreactivity

QVQLVESGGGIVQAGGSLRLSCAASGRIFSFNTMVSYRQAPRKERELVAAITSSSARTYYADSVKGRFTISRDNAKNTVYLQMNSLKPEDTAVYYCATRDWVGSVRMGYWGQGTQVTVSS
polyreactivity (PSR sort gate): high polyreactivity

QVQLVESGGGLVQAGGSLRLSCAASGRTFRPNAMGWYRQAPGKERELVAAISRRGGSTNYADSVKGRFTISRDNAKNTVYLQMNSLKPEDTAVYYCNSRGRRGYDYWGQGTQVTVSS
polyreactivity (PSR sort gate): high polyreactivity

QVQLVESGGGLVQAGRSLRLSCAASGINFAGYAKGWYRQAPGKERELVAAISRGGSTYYADSVKGRFTISRDNAKNTVYFQMNSLIPEDTAVYYCNTYYQQGYFTYTGWNYNYWGQGTQVTVST
polyreactivity (PSR sort gate): high polyreactivity

QVQLVESGGGIVQAGGSLRLSCAASGLIFSVNAMGWYRQAPGKERELVASISVSGGSTYYADSVKGRFTISRDNAKNTVYLQMNSLKPEDTAVYYCNTVPLAGEYSTDLRYDYWGQGTQVTVSS
polyreactivity (PSR sort gate): low polyreactivity

QVQLVESGGGLVQAGGSLRLSCAASGSTLYHSTMGWYRKAPGKETELVAAITWSGGSTSYADSVKGRFTISRDNAKNTVYLQMNSLKPEDTAVYYCAADDTPDDSDYWGQGTQVTVSS
polyreactivity (PSR sort gate): low polyreactivity

QVQLVESAGGLVQAGGTLRLSCDASGFIIYYYAMGWYRQAPGKERELVAAISRGGSTYYADSVKGRFTISRDNAKNTGYLQMISLKPEDTAVYYCASEDFPVYSYYYWGQGSQVTVSS
polyreactivity (PSR sort gate): high polyreactivity
